Ends that are not written are not given here. * marks the point of attachment. Biotin = O=C1N[C@H]2[C@H](CS[C@H]2CCCCC(=O)*)N1
Molecular target: GST-DLG1 PDZ domains 1-2 fusion protein (human) (UniProt Q12959)
Experiment: G assay titration of biotinylated peptide on immobilized GST-PDZ, saturation fit (apparent affinity)

Row | Kd [µM] | Binder
1 | 21 | Biotin-ISGTPTSTMVHGMTSSSSVV [CLASP-2 C-terminal peptide AA2L]
2 | 54 | Biotin-KDITSDSENSNFRNEIQSLV [CD95 (Apo-1/Fas) C-terminal peptide AA13L]

From US6942981
